Test results from US9605064B2, “Methods and compositions for treatment of skin disorders” (AbbVie Biotechnology Ltd, priority 2006, dated 2017).
Values joined by “and” are separate entries in the source; they are usually repeats but may differ in a detail not shown here. Identical values can stand only once.

Assays:
[1] = test system: patients with chronic plaque psoriasis; conditions: in vivo
Description: This 16-week, multicenter, open-label, Phase IIIb trial enrolled patients with chronic plaque psoriasis who were having a suboptimal response to ETN (Physician's Global Assessment [PGA]≧mild with months of therapy, or ≧3 months of therapy and deterioration of efficacy), MTX (PGA≧mild with ≧4 months of therapy), or narrow-band ultraviolet B (NB-UVB) phototherapy (PGA moderate with months of therapy). […] The primary endpoint was the proportion of patients who achieved PGA of clear or minimal at week 16. A secondary endpoint was the proportion achieving ≧1 grade of PGA improvement. Safety was assessed throughout the study. Efficacy analyses were intention to treat, with nonresponder imputation used for missing data. Efficacy and safety results were analyzed overall and for each prior-treatment group.

[2] = test system: patients with severe psoriasis who were non-responders to high-dosage etanercept; experiment: Adverse events, open-label adalimumab in non-responders to high-dosage etanercept; format: in vivo, human; conditions: 12 weeks
Description: Details on clinical course and adverse events were recorded, along with measurements of PASI and Dermatology Life Quality Index (DLQI) at baseline and Weeks 2, 4, 8, and 12.

[3] = test system: patients with moderate to severe chronic plaque psoriasis; experiment: Adverse events, Phase II trial with 48-week extension; conditions: for patients with serious adverse events (SAEs): 60-week trial
Description: The study was a randomized, double-blind, placebo-controlled, multi-center clinical trial, wherein patients were randomized to one of three treatment groups. The three treatment groups consisted of the following: • 1. […] Inclusion criteria included a diagnosis of moderate to severe chronic plaque psoriasis≧1 year prior to entry, a psoriasis-affected body surface area (BSA)>5%, and no previous use of TNF-antagonist therapy.
Inclusion criteria for the study included the following parameters: ≧18 years of age; moderate to severe chronic plaque psoriasis≧1 year; and affected BSA≧5%. […] Efficacy outcome measures included PASI and PGA.
Inclusion criteria included patients being 18 years of age; having moderate to severe chronic plaque psoriasis≧1 year; and affected BSA≧5%. Exclusion criteria included prior TNF-antagonist therapy and discontinuation of other systemic psoriasis therapies. Efficacy outcome measures which were used included PASI, PGA, DLQI.
Inclusion criteria included: • ≧18 years of age • Moderate to severe chronic plaque psoriasis 1 year • Affected BSA≧5% Exclusion criteria included: • Prior TNF-antagonist therapy • Discontinuation of other systemic psoriasis therapies Efficacy outcome was measured using PASI and DLQI responses/scores.

[4] = test system: patients with moderate to severe chronic plaque psoriasis; conditions: in vivo
Description: The study was a multi-center, 16-week, randomized controlled Phase III trial. The main inclusion criteria included: • Clinical diagnosis of psoriasis for ≧1 year • Affected body surface area (BSA)≧10% • Psoriasis Area and Severity Index (PASI)≧10 The main exclusion criteria was previous use of MTX or systemic anti-TNF therapy.

[5] = Adalimumab serum concentrations by ELISA, Phase II trial; format: in vivo, human; conditions: for steady-state concentration: 40 mg eow dosing; for mean adalimumab serum concentration: 80 mg at Week 0 and 40 mg at Week 1
[6] = Week 0-12, 40 mg weekly (N = 50)
[7] = Week 0-60, 40 mg weekly (N = 50)
[8] = Week 0-60, Placebo/Adalimumab 40 mg eow (N = 52)
[9] = Week 12-60, 40 mg weekly (n = 50)
[10] = Week 12-60, Placebo/Adalimumab 40 mg eow + Adalimumab 40 mg eow (n = 92)
[11] = Weeks 0-12, 40 mg weekly (n = 50)
[12] = Weeks 0-12, 40 mg weekly, prior biologic use (n = 9)
[13] = Weeks 12-60, 40 mg weekly (n = 50)
[14] = Weeks 12-60, 40 mg weekly, no prior use (n = 24)
[15] = Weeks 12-60, 40 mg weekly, prior biologic use (n = 7)
[16] = Weeks 12-60, 40 mg weekly, prior systemic use (n = 21)
[17] = Weeks 12-60, Placebo/Adalimumab 40 mg eow + Adalimumab 40 mg eow (n = 92)
[18] = Weeks 12-60, placebo/adalimumab 40 mg eow + adalimumab 40 mg eow, no prior use (n = 47)
[19] = Weeks 12-60, placebo/adalimumab 40 mg eow + adalimumab 40 mg eow, prior biologic use (n = 16)
[20] = Weeks 12-60, placebo/adalimumab 40 mg eow + adalimumab 40 mg eow, prior systemic use (n = 35)
[21] = all patients, Weeks 0-12, 40 mg eow (N = 45)
[22] = all patients, Weeks 0-12, 40 mg weekly (N = 50)
[23] = all patients, Weeks 12-60, 40 mg weekly (n = 50)
[24] = all patients, Weeks 12-60, placebo/adalimumab 40 mg eow + adalimumab 40 mg eow (N = 92)
[25] = baseline PASI ≧10 and DLQI >10, Weeks 0-12, 40 mg eow (N = 26)
[26] = baseline PASI ≧10 and DLQI >10, Weeks 0-12, 40 mg weekly (N = 23)
[27] = baseline PASI ≧10 and DLQI >10, Weeks 12-60, 40 mg weekly (N = 23)
[28] = baseline PASI ≧10 and DLQI >10, Weeks 12-60, placebo/adalimumab 40 mg eow + adalimumab 40 mg eow (N = 41)
[29] = weeks 12-60, 40 mg weekly (N = 50)
[30] = weeks 12-60, placebo/adalimumab 40 mg eow + adalimumab 40 mg eow (N = 92)

## Adalimumab: a human anti-TNF mAb, described in U.S. Pat. No. 6,090,382 as D2E7 (HUMIRA, Abbott Laboratories)
[1]
  serious infection: One subject
[2]
  Serious Adverse Events: No serious adverse events were reported
[3]; Week 0-12, 40 mg eow (N = 45)
  Withdrawals: Abnormal lab value, number of patients: 0
  Withdrawals: Adverse events, number of patients: 2
  Withdrawals: Lack of Efficacy, number of patients: 0
[3]; [6]
  Withdrawals: Abnormal lab value, number of patients: 1
  Withdrawals: Adverse events, number of patients: 2
  Withdrawals: Lack of Efficacy, number of patients: 0
[3]; Week 0-60, 40 mg eow (N = 45)
  Withdrawals: Abnormal lab value, number of patients: 0
  Withdrawals: Adverse events, number of patients: 4
  Withdrawals: Lack of Efficacy, number of patients: 6
[3]; [7]
  Withdrawals: Abnormal lab value, number of patients: 1
  Withdrawals: Adverse events, number of patients: 8
  Withdrawals: Lack of Efficacy, number of patients: 4
[3]; [8]
  Withdrawals: Abnormal lab value, number of patients: 0
  Withdrawals: Adverse events, number of patients: 2
  Withdrawals: Lack of Efficacy, number of patients: 6
[3]; [9]
  Back pain, number of patients: 4 n
  Back pain, percent of patients: (8.0) %
  Blood creatine phosphokinase increased, number of patients: 2 n
  Blood creatine phosphokinase increased, percent of patients: (4.0) %
  Blood triglycerides increased, number of patients: 2 n
  Blood triglycerides increased, percent of patients: (4.0) %
  Headache, number of patients: 6 n
  Headache, percent of patients: (12.0) %
  Muscle strain, number of patients: 4 n
  Muscle strain, percent of patients: (8.0) %
  Nasopharyngitis, number of patients: 6 n
  Nasopharyngitis, percent of patients: (12.0) %
  Skin papilloma, number of patients: 5 n
  Skin papilloma, percent of patients: (10.0) %
  Upper Respiratory Infection, Not otherwise specified, number of patients: 7 n
  Upper Respiratory Infection, Not otherwise specified, percent of patients: (14.0) %
  Upper Respiratory Infection, Viral not otherwise specified, number of patients: 3 n
  Upper Respiratory Infection, Viral not otherwise specified, percent of patients: (6.0) %
  Urticaria, number of patients: 3 n
  Urticaria, percent of patients: (6.0) %
[3]; [10]
  Back pain: 4 (4.3) n (%)
  Blood creatine phosphokinase increased: 5 (5.4) n (%)
  Blood triglycerides increased: 7 (7.6) n (%)
  Headache: 3 (3.3) n (%)
  Muscle strain: 1 (1.1) n (%)
  Nasopharyngitis: 13 (14.1) n (%)
  Skin papilloma: 3 (3.3) n (%)
  Upper Respiratory Infection, Viral not otherwise specified: 4 (4.3) n (%)
  Urticaria: 0 (0.0) n (%)
[3]; Weeks 0-12, 40 mg eow (n = 45)
  Adverse Events Leading to Withdrawal: 2 (4.4) n (%)
  Any Adverse Event: 28 (62.2) n (%)
  Serious Adverse Events: 1 (2.2 n (%)
[3]; [11]
  Adverse Events Leading to Withdrawal: 3 (6.0) n (%)
  Any Adverse Event: 39 (78.0) n (%)
  Serious Adverse Events: 4 (8.0) n (%)
[3]; [12]
  AE's→Withdrawal: 2 (22) n (%)
  Any AE: 6 (67) n (%)
  Serious AE: 2 (22) n (%)
[3]; [13]
  Adverse Events Leading to Withdrawal: 5 (10.0) n (%)
  Any Adverse Event: 39 (78.0) n (%)
  Serious Adverse Events: 7 (14.0) n (%)
[3]; [14]
  AE's→Withdrawal: (8) %
  AE's→Withdrawal, number of patients: 2
  Any AE: (79) %
  Any AE, number of patients: 19
  Serious AE: (17) %
  Serious AE, number of patients: 4
[3]; [15]
  AE's→Withdrawal: (0) %
  AE's→Withdrawal, number of patients: 0
  Any AE: (86) %
  Any AE, number of patients: 6
  Serious AE: (0) %
  Serious AE, number of patients: 0
[3]; [16]
  AE's→Withdrawal: (14) %
  AE's→Withdrawal, number of patients: 3
  Any AE: (81) %
  Any AE, number of patients: 17
  Serious AE: (10) %
  Serious AE, number of patients: 2
[3]; [17]
  Adverse Events Leading to Withdrawal: 3 (3.3) n (%)
  Any Adverse Event: 72 (78.3) n (%)
  Serious Adverse Events: 2 (2.2) n (%)
[3]; [18]
  AE's→Withdrawal: (2) %
  AE's→Withdrawal, number of patients: 1
  Any AE: (79) %
  Any AE, number of patients: 37
  Serious AE: (0) %
  Serious AE, number of patients: 0
[3]; [19]
  AE's→Withdrawal: (6) %
  AE's→Withdrawal, number of patients: 1
  Any AE: (75) %
  Any AE, number of patients: 12
  Serious AE: (13) %
  Serious AE, number of patients: 2
[3]; [20]
  AE's→Withdrawal: (6) %
  AE's→Withdrawal, number of patients: 2
  Any AE: (80) %
  Any AE, number of patients: 28
  Serious AE: (6) %
  Serious AE, number of patients: 2
[3]; Weeks 12-60, range across treatment groups
  patients who withdrew due to adverse events: 3-10%
[3]; [21]
  AEs leading to withdrawal: 2 (4) n (%) and 2 (4.4) n (%)
  Any AE: 28 (62) n (%) and 28 (62.2) n (%)
  Serious AEs: 1 (2) n (%) and 1 (2.2) n (%)
[3]; [22]
  AEs leading to withdrawal: 3 (6) n (%)
  Any AE: 39 (78) n (%)
  Serious AEs: 4 (8) n (%)
[3]; [23]
  AEs leading to withdrawal: 5 (10) n (%)
  Any AE: 39 (78) n (%)
  Serious AEs: 7 (14) n (%)
[3]; [24]
  AEs leading to withdrawal: 3 (3) n (%) and 3 (3.3) n (%)
  Any AE: 72 (78) n (%) and 72 (87.3) n (%)
  Serious AEs: 2 (2) n (%) and 2 (2.2) n (%)
[3]; [25]
  AEs leading to withdrawal: 0 (0) n (%)
  Any AE: 16 (62) n (%)
  Serious AEs: 0 (0) n (%)
[3]; [26]
  AEs leading to withdrawal: 1 (4) n (%)
  Any AE: 19 (83) n (%)
  Serious AEs: 2 (9) n (%)
[3]; [27]
  AEs leading to withdrawal: 0 (0) n (%)
  Any AE: 11 (48) n (%)
  Serious AEs: 0 (0) n (%)
[3]; [28]
  AEs leading to withdrawal: 2 (5) n (%)
  Any AE: 23 (56) n (%)
  Serious AEs: 1 (2) n (%)
[3]; dosage escalation group
  Serious Adverse Events: no serious adverse events were observed
  withdrew from the study due to adverse events: two others
[3]; dosage escalation group, listed as adalimumab
  Serious Adverse Events: One patient
[3]; patients with PASI 75-99 and DLQI=0
  patients who had adverse events: 80%
[3]; patients with PASI 75-99 and DLQI>0
  patients who had adverse events: 91%
[3]; patients with PASI 100 and DLQI=0
  patients who had adverse events: 91%
[3]; patients with PASI 100 and DLQI>0
  patients who had adverse events: 50%
[3]; prior-biologic patients
  patients with serious adverse events (SAEs): 4 patients
[3]; prior-systemic patients
  patients with serious adverse events (SAEs): 7 patients
[3]; [29]
  Back pain, number of patients: 4
  Back pain, percentage (in parentheses): (8.0)
  Blood CPK increased, number of patients: 2
  Blood CPK increased, percentage (in parentheses): (4.0)
  Blood TG increased, number of patients: 2
  Blood TG increased, percentage (in parentheses): (4.0)
  Headache, number of patients: 6
  Headache, percentage (in parentheses): (12.0)
  Muscle strain, number of patients: 4
  Muscle strain, percentage (in parentheses): (8.0)
  Nasopharyngitis, number of patients: 6
  Nasopharyngitis, percentage (in parentheses): (12.0)
  Skin papilloma, number of patients: 5
  Skin papilloma, percentage (in parentheses): (10.0)
  URI, NOS, number of patients: 7
  URI, NOS, percentage (in parentheses): (14.0)
  URI, viral NOS, number of patients: 3
  URI, viral NOS, percentage (in parentheses): (6.0)
  Urticari, number of patients: 3
  Urticari, percentage (in parentheses): (6.0)
[3]; [30]
  Back pain, number (percentage in parentheses): 4 (4.3)
  Blood CPK increased, number (percentage in parentheses): 5 (5.4)
  Blood TG increased, number (percentage in parentheses): 7 (7.6)
  Headache, number (percentage in parentheses): 3 (3.3)
  Muscle strain, number (percentage in parentheses): 1 (1.1)
  Nasopharyngitis, number (percentage in parentheses): 13 (14.1)
  Skin papilloma, number (percentage in parentheses): 3 (3.3)
  URI, NOS, number (percentage in parentheses): 9 (9.8)
  URI, viral NOS, number (percentage in parentheses): 4 (4.3)
  Urticari, number (percentage in parentheses): 0 (0.0)
[3]; without recent prior systemic or biologic therapy
  patients with serious adverse events (SAEs): 5 patients
[4]
  Any infectious AE: 51 (48) n (%)
  Any infectious SAE: 0 (0) n (%)
[5]; Week 11
  steady-state concentration: 6.0 µg/mL
[5]; Week 12
  steady-state concentration: 6.9 µg/mL
[5]; Week 1
  mean adalimumab serum concentration: 6.0 µg/mL
[5]; Week 2
  mean adalimumab serum concentration: 8.8 µg/mL
